Results as given in article PMC10467427 (2023).
Like-named read-outs stand apart in the source and are kept apart here.

T1: MBP:Hts^ALDO (Drosophila (S2 cell cDNA library))
T1 chain: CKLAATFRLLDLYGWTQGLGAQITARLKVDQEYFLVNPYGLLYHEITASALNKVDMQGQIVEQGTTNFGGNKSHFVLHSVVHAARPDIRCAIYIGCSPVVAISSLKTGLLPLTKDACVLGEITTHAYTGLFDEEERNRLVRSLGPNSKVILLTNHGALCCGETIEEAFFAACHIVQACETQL

T2: MBP:Hts^1-319 (Drosophila (S2 cell cDNA library))
T2 chain: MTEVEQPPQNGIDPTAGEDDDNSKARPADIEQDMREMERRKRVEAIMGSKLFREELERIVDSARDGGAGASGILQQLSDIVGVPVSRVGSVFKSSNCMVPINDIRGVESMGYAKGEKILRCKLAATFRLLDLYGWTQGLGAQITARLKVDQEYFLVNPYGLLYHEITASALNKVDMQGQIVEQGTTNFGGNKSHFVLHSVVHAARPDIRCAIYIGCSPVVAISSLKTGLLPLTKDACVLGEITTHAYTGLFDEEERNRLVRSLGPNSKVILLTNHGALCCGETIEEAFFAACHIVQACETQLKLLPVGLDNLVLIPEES

T3: MBP:Hts^FL (Drosophila (S2 cell cDNA library))
T3 chain: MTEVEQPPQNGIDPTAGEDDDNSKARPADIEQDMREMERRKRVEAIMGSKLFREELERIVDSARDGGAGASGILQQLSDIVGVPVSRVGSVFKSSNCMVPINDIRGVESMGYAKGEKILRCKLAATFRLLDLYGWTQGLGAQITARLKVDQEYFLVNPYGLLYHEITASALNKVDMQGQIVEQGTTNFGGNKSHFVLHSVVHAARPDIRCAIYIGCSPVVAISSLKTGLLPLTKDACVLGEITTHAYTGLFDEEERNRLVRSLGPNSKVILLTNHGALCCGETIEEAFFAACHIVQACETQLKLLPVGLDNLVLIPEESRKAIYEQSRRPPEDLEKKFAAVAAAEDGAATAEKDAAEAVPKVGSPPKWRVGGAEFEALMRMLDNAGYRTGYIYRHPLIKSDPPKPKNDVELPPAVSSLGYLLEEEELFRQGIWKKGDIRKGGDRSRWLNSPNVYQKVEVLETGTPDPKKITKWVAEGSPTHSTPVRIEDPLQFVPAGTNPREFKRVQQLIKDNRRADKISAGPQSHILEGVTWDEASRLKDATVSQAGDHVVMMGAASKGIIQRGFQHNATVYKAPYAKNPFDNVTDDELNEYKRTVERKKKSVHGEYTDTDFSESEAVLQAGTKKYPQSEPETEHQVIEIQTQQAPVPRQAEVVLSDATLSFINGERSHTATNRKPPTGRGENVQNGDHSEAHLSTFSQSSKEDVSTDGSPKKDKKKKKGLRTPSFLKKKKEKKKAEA

T4: GST-fused Pins^TPR domains (Drosophila (S2 cell cDNA library), UniProt Q9VB22 1-658)
T4 chain: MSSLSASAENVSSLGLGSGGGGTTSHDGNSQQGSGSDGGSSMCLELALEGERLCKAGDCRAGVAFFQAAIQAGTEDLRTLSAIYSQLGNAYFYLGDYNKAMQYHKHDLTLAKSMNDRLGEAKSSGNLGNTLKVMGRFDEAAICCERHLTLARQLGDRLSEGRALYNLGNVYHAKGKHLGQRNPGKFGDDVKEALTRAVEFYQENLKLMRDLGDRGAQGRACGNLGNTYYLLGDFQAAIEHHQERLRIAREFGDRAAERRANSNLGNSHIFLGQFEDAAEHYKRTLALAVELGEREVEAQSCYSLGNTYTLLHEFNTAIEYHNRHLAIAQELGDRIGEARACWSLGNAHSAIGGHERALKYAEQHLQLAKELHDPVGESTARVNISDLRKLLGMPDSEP


Key:
[1] = target: T1, MBP:Hts^ALDO
[2] = target: T2, MBP:Hts^1-319
[3] = target: T3, MBP:Hts^FL
[4] = target: T4, GST-fused Pins^TPR domains
[5] = target: T3, MBP:Hts^FL

Kd [1] [nM]	Kd [2] [nM]	Kd [3] [nM]	Kd [4] [nM]	Kd [5] [nM]	Binder
760	550	620	186	1620	Mud^CC-PBD (domain or fragment, 6xHis tag removed by TEV. Limits not printed: start set just before L1788 (N-terminal end of the CC), end at the conventional PBD boundary (about 1982). Needs the NB isoform that includes the CC and PBD exons. Three copies follow from the predicted parallel trimer.) KLALDCKILQAKYRDAKDEIKRCEKKIKDQRLEMEGKLEKMKNKMRSLYTAEVTRMKEKQERDAAKSASELEALTAQNAKYEEHTRKLSNQIVRLNEKILEQQKQHAIISTNLRHLQMQPISETKPSSTTLTVSSSSSAPNDDWQPFKRPNVPSSNLAMEDEEGEVFNNTYLTDLKLGRVPADMTAEELIYRNSLQPPHLKST
			189		Mud^CC-PBD L1788E/I1878D (ED) mutant (domain or fragment, 6xHis tag removed by TEV. The mutations disrupt the coiled-coil trimer. Limits not given, set by convention as for the wild type.) KLALDCKIEQAKYRDAKDEIKRCEKKIKDQRLEMEGKLEKMKNKMRSLYTAEVTRMKEKQERDAAKSASELEALTAQNAKYEEHTRKLSNQIVRLNEKDLEQQKQHAIISTNLRHLQMQPISETKPSSTTLTVSSSSSAPNDDWQPFKRPNVPSSNLAMEDEEGEVFNNTYLTDLKLGRVPADMTAEELIYRNSLQPPHLKST
